Holding throughout (assay): BIAcore SPR (Albumin KD column)
(In SPR one partner is held on a chip, and binding of the other changes the refractive index at the surface.)

For assay [1], the target named is T1, DOM7h-14/Exendin-4 fusion DMS number 7138.
T1 construct: exendin-4, (G4S)3 linker, AlbudAb; also called DMS7138

The target of assay [2] is T2, DOM7h-14-10/Exendin-4 fusion DMS number 7139.
T2 construct: exendin-4, (G4S)3 linker, AlbudAb; also called DMS7139

For assay [3], the target named is T3, DOM7h-14-18/Exendin-4 fusion DMS number 7140.
T3 construct: exendin-4, (G4S)3 linker, AlbudAb; also called DMS7140

For assay [4], the target named is T4, DOM7h-14-19/Exendin-4 fusion DMS number 7141.
T4 construct: exendin-4, (G4S)3 linker, AlbudAb; also called DMS7141

The target of assay [5] is T5, DOM7h-11-12/Exendin-4 fusion DMS number 7147.
T5 construct: exendin-4, (G4S)3 linker, AlbudAb; also called DMS7147

The target of assay [6] is T6, DOM7h-11/Exendin-4 fusion DMS number 7142.
T6 construct: exendin-4, (G4S)3 linker, AlbudAb; also called DMS7142

Assay [7] deals with T7, DOM7h-11-15/Exendin-4 fusion DMS number 7143.
T7 construct: exendin-4, (G4S)3 linker, AlbudAb; also called DMS7143

B1: Rat Serum Albumin (other, UniProt P02770 25-608, looked up)
chain: EAHKSEIAHRFKDLGEQHFKGLVLIAFSQYLQKCPYEEHIKLVQEVTDFAKTCVADENAENCDKSIHTLFGDKLCAIPKLRDNYGELADCCAKQEPERNECFLQHKDDNPNLPPFQRPEAEAMCTSFQENPTSFLGHYLHEVARRHPYFYAPELLYYAEKYNEVLTQCCTESDKAACLTPKLDAVKEKALVAAVRQRMKCSSMQRFGERAFKAWAVARMSQRFPNAEFAEITKLATDVTKINKECCHGDLLECADDRAELAKYMCENQATISSKLQACCDKPVLQKSQCLAEIEHDNIPADLPSIAADFVEDKEVCKNYAEAKDVFLGTFLYEYSRRHPDYSVSLLLRLAKKYEATLEKCCAEGDPPACYGTVLAEFQPLVEEPKNLVKTNCELYEKLGEYGFQNAVLVRYTQKAPQVSTPTLVEAARNLGRVGTKCCTLPEAQRLPCVEDYLSAILNRLCVLHEKTPVSEKVTKCCSGSLVERRPCFSALTVDETYVPKEFKAETFTFHSDICTLPDKEKQIKKQTALAELVKHKPKATEDQLKTVMGDFAQFVDKCCKAADKDNCFATEGPNLVARSKEALA
notes: mature; purified protein on CM5 chips for BIAcore; also called RSA; rat SA
In the case of B1, the dissociation constant (Kd) (as a rule, a measure of binding affinity in units of concentration) in assay [1] came out at 2.4 µM; in assay [2], 0.019 µM; in assay [3], 16 µM; in assay [4], 17 µM; in assay [5] it was 1.4 µM; in assay [6], 24 µM. The molecule further registered a dissociation constant (Kd) in assay [7] of 0.13 µM.

For the origin of these results see patent US20130129746A1 (GlaxoSmithKline, published 2013).
